Source: publication PMC3325594 (International Journal of Toxicology, 2012)

Legend:
female rats = assay: 2-year carcinogenicity study, survival rates in female rats; type: in vivo; details: 5 IU/kg
female mice = assay: 2-year carcinogenicity study, survival rates in female mice; type: in vivo; details: 12.5 IU/kg
mammalian cell lines = details: cited from earlier work
[1] = test system: insulin-like growth factor 1 receptor (IGF-1R); details: in vitro; cited from earlier work
rats = details: 12-month toxicity study; cited from earlier work
insulin receptor (IR) = details: in vitro; cited from earlier work
[2] = test system: insulin receptor (IR) signaling; details: cited from earlier work
[3] = test system: mammary gland of young female rats; details: 26-week toxicity study; cited from earlier work

NPH: neutral protamine Hagedorn (NPH) insulin, comparator group
Survival rate (female rats; week 80): 72% | Survival rate (female rats; week 81): 72% | Survival rate (female rats; week 82): 72% | Survival rate (female rats; week 83): 70% | Survival rate (female rats; week 84): 70% | Survival rate (female mice; week 80): 56% | Survival rate (female mice; week 81): 56% | Survival rate (female mice; week 82): 56% | Survival rate (female mice; week 85): 50% | Survival, animals alive (female mice; week 88, of 50 initial animals): 22 n | Survival, animals alive (female mice; week 89, of 50 initial animals): 22 n

[Asp^B10] insulin
Proliferation rate in mammalian cell lines compared to regular human insulin (mammalian cell lines): higher proliferation rate | Affinity toward IGF-1R compared to regular human insulin [1]: higher affinity | Incidence of mammary tumors (rats): higher incidence of mammary tumors | Affinity toward the insulin receptor (IR) compared to regular human insulin (insulin receptor (IR)): higher affinity | Occupancy time at the IR compared to regular human insulin (insulin receptor (IR)): prolonged occupancy time

[Gly^A21, des-Thr^B30]-human insulin [M2]
In vitro metabolic and mitogenic profiles [2]: comparable with human insulin

[Gly^A21] human insulin [M1]
In vitro metabolic and mitogenic profiles [2]: comparable with human insulin

insulin detemir
Proliferative effect in the mammary gland [3]: modest proliferative effect
